From patent US20150274802A1 (INDIANA UNIVERSITY RESEARCH AND TECHNOLOGY, published 2015)
Ends that are not written are not given here.

B1: #57: Gly^B2-PEG20K-Gly^B2 #11 dimer (ligand)
chain: GPEHLCGAHLVDALYLVCGDRGFYGYGSSSRRAPQTGIVDECCHRSCDLRRLENYCN
modifications: not fully specified (N-terminus); ends and bridges not checked; also: dimer: N-terminal amines of two chains joined by bifunctional 20K PEG linker
B2: IGF1 (Y^B16L^B17) (ligand)
chain 1: GIVDECCFRSCDLRRLEMYCA
chain 2: GPETLCGAELVDALYLVCGDRGFYFNKPT
notes: also called IGF analog IGF1 (Y^B16L^B17)

How the values were obtained:
human IGF-1 receptor [1] = molecular target: T1, human IGF-1 receptor (human, UniProt P08069 31-1367); experiment: cell-based or functional assay
human insulin receptor [2] = molecular target: T2, human insulin receptor (human, UniProt P06213 28-1382); experiment: cell-based or functional assay
human IGF-1 receptor [3] = molecular target: T1, human IGF-1 receptor; experiment: cell-based or functional assay; remark: listed apart in the source
human insulin receptor [4] = molecular target: T2, human insulin receptor; experiment: competition SPA, [125I]insulin

Row | Binder | Phosphorylation (EC50), % IGF-1 R (human IGF-1 receptor [1]) [%] | potency in vitro against monomer #39 (human insulin receptor [2]) [fold] | % Insulin Activity (in vitro, assay not named) (human IGF-1 receptor [3]) [%] | IC50 (human insulin receptor [4]) [nM]
1 | B1 | 2.6 | ~5 | 2.6 | 
2 | B2 |  |  |  | 0.51
